Measured values taken from patent US20070105152.

Columns and labels:
[1] = target: T1, Leu-Asn-AcLys-Asp-Gln (SIRT1 library hit, on bead)
T1 chain: LNKDQXXRM

[2] = target: T2, Pro-Ile-AcLys-Glu-Gln (SIRT1 library hit, on bead)
T2 chain: PIKEQXXRM

[3] = target: T3, Nle-Nle-AcLys-Gln-Gln (SIRT1 library hit, on bead)
T3 chain: MMKQQXXRM

[4] = target: T4, Trp-Gly-AcLys-Ser-Pro (SIRT1 library hit, on bead)
T4 chain: WGKSPXXRM

[5] = target: T5, HK(AcK)LM
T5 chain: HKKLM

[6] = target: T6, QP(AcK)QI
T6 chain: QPKQI

[7] = target: T7, Me2Arg-Pro-AcLys-Gln-Phe (SIRT1 library hit, on bead)
T7 chain: RPKQFXXRM

[8] = target: T8, WH(AcK)QQ
T8 chain: WHKQQ

[9] = target: T9, Trp-Pro-AcLys-Trp-Gln (SIRT1 library hit, on bead) (not fully specified)
T9 chain: WPKWQXXRM

[10] = target: T10, Thr-Glu-AcLys-Gln-Glu (SIRT1 library hit, on bead)
T10 chain: TEKQEXXRM

[11] = target: T11, Ser-Asp-AcLys-Tyr-His (SIRT1 library hit, on bead)
T11 chain: SDKYHXXRM

[12] = target: T12, Me2Arg/Pro-Me2Arg/Pro-AcLys-Ser-Ile (SIRT1 library hit, on bead)
T12 chain: RPKSIXXRM

[13] = target: T13, AY(AcK)EV
T13 chain: AYKEV

[14] = target: T14, Phe-Glu-AcLys-Tyr-Me2Arg (SIRT1 library hit, on bead)
T14 chain: FEKYRXXRM

[15] = target: T15, NH(AcK)II
T15 chain: NHKII

[16] = target: T16, EL(AcK)AS
T16 chain: ELKAS

[17] = target: T17, Me2RP(AcK)SI
T17 chain: RPKSI

[18] = target: T18, Thr-Pro-AcLys-Asn-Ala (SIRT1 library hit, on bead)
T18 chain: TPKNAXXRM

[19] = target: T19, Gly-Tyr-AcLys-Pro-Thr (SIRT1 library hit, on bead)
T19 chain: GYKPTXXRM

[20] = target: T20, Gln-Pro-AcLys-Gln-Ile (SIRT1 library hit, on bead)
T20 chain: QPKQIXXRM

[21] = target: T21, WH(AcK)FQ
T21 chain: WHKFQ

[22] = target: T22, VQ(AcK)II
T22 chain: VQKII

[23] = target: T23, Pro-Gly-AcLys-Leu-Tyr (SIRT1 library hit, on bead)
T23 chain: PGKLYXXRM

[24] = target: T24, AcTGG(AcK)AP
T24 chain: TGGKAP

[25] = target: T25, His-Me2Arg-AcLys-Nle-Pro (SIRT1 library hit, on bead)
T25 chain: HRKMPXXRM

[26] = target: T26, Asp-Ser-AcLys-Gly-Ala (SIRT1 library hit, on bead)
T26 chain: DSKGAXXRM

[27] = target: T27, Trp-His-AcLys-Phe-Glu (SIRT1 library hit, on bead) (not fully specified)
T27 chain: WHKFEXXRM

[28] = target: T28, AcSTGG(AcK)AP
T28 chain: STGGKAP

[29] = target: T29, Asn-His-AcLys-Leu-Leu (SIRT1 library hit, on bead)
T29 chain: NHKLLXXRM

[30] = target: T30, Ser-Tyr-AcLys-Gln-Trp (SIRT1 library hit, on bead)
T30 chain: SYKQWXXRM

[31] = target: T31, AcGG(AcK)APR
T31 chain: GGKAPR

[32] = target: T32, LNle(AcK)VG
T32 chain: LLKVG

[33] = target: T33, Asn-His-AcLys-Ile-Ile (SIRT1 library hit, on bead)
T33 chain: NHKIIXXRM

[34] = target: T34, QNle(AcK)GF
T34 chain: QLKGF

[35] = target: T35, Me2Arg-Phe-AcLys-Pro-Glu (SIRT1 library hit, on bead)
T35 chain: RFKPEXXRM

[36] = target: T36, Trp-His-AcLys-Phe-Gln (SIRT1 library hit, on bead) (not fully specified)
T36 chain: WHKFQXXRM

[37] = target: T37, Ile-Tyr-AcLys-Asn-Asp (SIRT1 library hit, on bead)
T37 chain: IYKNDXXRM

[38] = target: T38, Pro/Trp-Pro/Trp-AcLys-Ile-Thr (SIRT1 library hit, on bead)
T38 chain: WPKITXXRM

[39] = target: T39, His-Trp-AcLys-Thr-His (SIRT1 library hit, on bead)
T39 chain: HWKTHXXRM

[40] = target: T40, AcKSTGG(AcK)AP
T40 chain: KSTGGKAP

[41] = target: T41, AcGG(AcK)AP
T41 chain: GGKAP

[42] = target: T42, Ile-Phe-AcLys-Thr-Phe (SIRT1 library hit, on bead)
T42 chain: IFKTFXXRM

[43] = target: T43, Val-Gln-AcLys-Ile-Ile (SIRT1 library hit, on bead) (not fully specified)
T43 chain: VQKIIXXRM

[44] = target: T44, Asp-Val-AcLys-Nle-His (SIRT1 library hit, on bead)
T44 chain: DVKMHXXRM

[45] = target: T45, AcGG(AcK)APRK
T45 chain: GGKAPRK

[46] = target: T46, AcTGG(AcK)APR
T46 chain: TGGKAPR

[47] = target: T47, Me2RP(AcK)QF
T47 chain: RPKQF

[48] = target: T48, WP(AcK)QQ
T48 chain: WPKQQ

[49] = target: T49, Me2Arg/Trp-Me2Arg/Trp-AcLys-Ile-Thr (SIRT1 library hit, on bead)
T49 chain: RWKITXXRM

[50] = target: T50, AcTGG(AcK)APRK
T50 chain: TGGKAPRK

[51] = target: T51, AcGG(AcK)APRKQ
T51 chain: GGKAPRKQ

[52] = target: T52, AcSTGG(AcK)APR
T52 chain: STGGKAPR

[53] = target: T53, Ala-Val-AcLys-Phe-Nle (SIRT1 library hit, on bead)
T53 chain: AVKFMXXRM

[54] = target: T54, Gly-Thr-AcLys-Thr-Gly (SIRT1 library hit, on bead)
T54 chain: GTKTGXXRM

[55] = target: T55, Me2Arg-Ala-AcLys-Nle-Asp (SIRT1 library hit, on bead)
T55 chain: RAKMDXXRM

[56] = target: T56, Trp-Trp-AcLys-His-Gly (SIRT1 library hit, on bead) (not fully specified)
T56 chain: WWKHGXXRM

B1: human NAD+-dependent deacetylase SIRT1 (protein)
chain: MADEAALALQPGGSPSAAGADREAASSPAGEPLRKRPRRDGPGLERSPGEPGGAAPEREVPAAARGCPGAAAAALWREAEAEAAAAGGEQEAQATAAAGEGDNGPGLQGPSREPPLADNLYDEDDDDEGEEEEEAAAAAIGYRDNLLFGDEIITNGFHSCESDEEDRASHASSSDWTPRPRIGPYTFVQQHLMIGTDPRTILKDLLPETIPPPELDDMTLWQIVINILSEPPKRKKRKDINTIEDAVKLLQECKKIIVLTGAGVSVSCGIPDFRSRDGIYARLAVDFPDLPDPQAMFDIEYFRKDPRPFFKFAKEIYPGQFQPSLCHKFIALSDKEGKLLRNYTQNIDTLEQVAGIQRIIQCHGSFATASCLICKYKVDCEAVRGDIFNQVVPRCPRCPADEPLAIMKPEIVFFGENLPEQFHRAMKYDKDEVDLLIVIGSSLKVRPVALIPSSIPHEVPQILINREPLPHLHFDVELLGDCDVIINELCHRLGGEYAKLCCNPVKLSEITEKPPRTQKELAYLSELPPTPLHVSEDSSSPERTSPPDSSVIVTLLDQAAKSNDDLDVSESKGCMEEKPQEVQTSRNVESIAEQMENPDLKNVGSSTGEKNERTSVAGTVRKCWPNRVAKEQISRRLDGNQYLFLPPNRYIFHGAEVYSDSEDDVLSSSSCGSNSDSGTCQSPSLEEPMEDESEIEEFYNGLEDEPDVPERAGGAGFGTDGDDQEAINEAISVKQEVTDMNYPSNKS
on-bead deacetylation, biotin and streptavidin quantum dot fluorescence, among the 45 brightest beads [1]: hits from the SIRT1 combinatorial library screen
on-bead deacetylation, biotin and streptavidin quantum dot fluorescence, among the 45 brightest beads [2]: hits from the SIRT1 combinatorial library screen
on-bead deacetylation, biotin and streptavidin quantum dot fluorescence, among the 45 brightest beads [3]: hits from the SIRT1 combinatorial library screen
on-bead deacetylation, biotin and streptavidin quantum dot fluorescence, among the 45 brightest beads [4]: hits from the SIRT1 combinatorial library screen
kcat/Km [5]: 3110 M⁻¹ s⁻¹
fold preference in catalytic activity over WP(AcK)QQ [6]: QP(AcK)QI is favored over WP(AcK)QQ by 18-fold
kcat/Km [6]: 0.0272 M⁻¹ s⁻¹
on-bead deacetylation, biotin and streptavidin quantum dot fluorescence, among the 45 brightest beads [7]: hits from the SIRT1 combinatorial library screen
fold difference in catalytic activity against WP(AcK)QQ [8]: 7 fold
kcat/Km [8]: 0.00723 M⁻¹ s⁻¹
on-bead deacetylation, biotin and streptavidin quantum dot fluorescence, among the 45 brightest beads [9]: hits from the SIRT1 combinatorial library screen
on-bead deacetylation, biotin and streptavidin quantum dot fluorescence, among the 45 brightest beads [10]: hits from the SIRT1 combinatorial library screen
on-bead deacetylation, biotin and streptavidin quantum dot fluorescence, among the 45 brightest beads [11]: hits from the SIRT1 combinatorial library screen
on-bead deacetylation, biotin and streptavidin quantum dot fluorescence, among the 45 brightest beads [12]: hits from the SIRT1 combinatorial library screen
kcat/Km [13]: 5320 M⁻¹ s⁻¹
on-bead deacetylation, biotin and streptavidin quantum dot fluorescence, among the 45 brightest beads [14]: hits from the SIRT1 combinatorial library screen
kcat/Km [15]: 3630 M⁻¹ s⁻¹
kcat/Km [16]: 0.00139 M⁻¹ s⁻¹
kcat/Km [17]: 8360 M⁻¹ s⁻¹
on-bead deacetylation, biotin and streptavidin quantum dot fluorescence, among the 45 brightest beads [18]: hits from the SIRT1 combinatorial library screen
on-bead deacetylation, biotin and streptavidin quantum dot fluorescence, among the 45 brightest beads [19]: hits from the SIRT1 combinatorial library screen
on-bead deacetylation, biotin and streptavidin quantum dot fluorescence, among the 45 brightest beads [20]: hits from the SIRT1 combinatorial library screen
kcat/Km [21]: 3290 M⁻¹ s⁻¹
kcat/Km [22]: ≥ 2470 M⁻¹ s⁻¹
on-bead deacetylation, biotin and streptavidin quantum dot fluorescence, among the 45 brightest beads [23]: hits from the SIRT1 combinatorial library screen
Relative kcat/Km (relative to AcTGG(AcK)APRK = 1) [24]: 0.54
on-bead deacetylation, biotin and streptavidin quantum dot fluorescence, among the 45 brightest beads [25]: hits from the SIRT1 combinatorial library screen
on-bead deacetylation, biotin and streptavidin quantum dot fluorescence, among the 45 brightest beads [26]: hits from the SIRT1 combinatorial library screen
on-bead deacetylation, biotin and streptavidin quantum dot fluorescence, among the 45 brightest beads [27]: hits from the SIRT1 combinatorial library screen
Relative kcat/Km (relative to AcTGG(AcK)APRK = 1) [28]: 1.61
on-bead deacetylation, biotin and streptavidin quantum dot fluorescence, among the 45 brightest beads [29]: hits from the SIRT1 combinatorial library screen
on-bead deacetylation, biotin and streptavidin quantum dot fluorescence, among the 45 brightest beads [30]: hits from the SIRT1 combinatorial library screen
Relative kcat/Km (relative to AcTGG(AcK)APRK = 1) [31]: 0.68
kcat/Km [32]: 0.00161 M⁻¹ s⁻¹
on-bead deacetylation, biotin and streptavidin quantum dot fluorescence, among the 45 brightest beads [33]: hits from the SIRT1 combinatorial library screen
kcat/Km [34]: 0.00237 M⁻¹ s⁻¹
on-bead deacetylation, biotin and streptavidin quantum dot fluorescence, among the 45 brightest beads [35]: hits from the SIRT1 combinatorial library screen
on-bead deacetylation, biotin and streptavidin quantum dot fluorescence, among the 45 brightest beads [36]: hits from the SIRT1 combinatorial library screen
on-bead deacetylation, biotin and streptavidin quantum dot fluorescence, among the 45 brightest beads [37]: hits from the SIRT1 combinatorial library screen
on-bead deacetylation, biotin and streptavidin quantum dot fluorescence, among the 45 brightest beads [38]: hits from the SIRT1 combinatorial library screen
on-bead deacetylation, biotin and streptavidin quantum dot fluorescence, among the 45 brightest beads [39]: hits from the SIRT1 combinatorial library screen
Relative kcat/Km (relative to AcTGG(AcK)APRK = 1) [40]: 0.71
Relative kcat/Km (relative to AcTGG(AcK)APRK = 1) [41]: 1.72
on-bead deacetylation, biotin and streptavidin quantum dot fluorescence, among the 45 brightest beads [42]: hits from the SIRT1 combinatorial library screen
on-bead deacetylation, biotin and streptavidin quantum dot fluorescence, among the 45 brightest beads [43]: hits from the SIRT1 combinatorial library screen
on-bead deacetylation, biotin and streptavidin quantum dot fluorescence, among the 45 brightest beads [44]: hits from the SIRT1 combinatorial library screen
Relative kcat/Km (relative to AcTGG(AcK)APRK = 1) [45]: 1.01
Relative kcat/Km (relative to AcTGG(AcK)APRK = 1) [46]: 0.64
kcat/Km [47]: 0.0147 M⁻¹ s⁻¹
kcat/Km [48]: 0.00154 M⁻¹ s⁻¹
on-bead deacetylation, biotin and streptavidin quantum dot fluorescence, among the 45 brightest beads [49]: hits from the SIRT1 combinatorial library screen
Relative kcat/Km (relative to AcTGG(AcK)APRK = 1) [50]: 1
Relative kcat/Km (relative to AcTGG(AcK)APRK = 1) [51]: 0.8
Relative kcat/Km (relative to AcTGG(AcK)APRK = 1) [52]: 0.67
on-bead deacetylation, biotin and streptavidin quantum dot fluorescence, among the 45 brightest beads [53]: hits from the SIRT1 combinatorial library screen
on-bead deacetylation, biotin and streptavidin quantum dot fluorescence, among the 45 brightest beads [54]: hits from the SIRT1 combinatorial library screen
on-bead deacetylation, biotin and streptavidin quantum dot fluorescence, among the 45 brightest beads [55]: hits from the SIRT1 combinatorial library screen
on-bead deacetylation, biotin and streptavidin quantum dot fluorescence, among the 45 brightest beads [56]: hits from the SIRT1 combinatorial library screen
